This series is described as follows: soluble on expression in E. coli; label from the status in PepcDB or PDB records.
With “MESKLEQNVTAMMSSTGASGITVADSEGVRLHSAGKITDMANVGSLMIADAKNMFPKGTRNKKNSYPIVTLHSSDGSKTTKFLFENLKILNVLFKNQQISYYLLQKPEISGFSYKKSVFFSNFLSENLKIF”, the “soluble on expression in E. coli” value is “soluble”.
With “MESLIGLVNRIQRACTVLGDYGGGTGSNAFNSLWEALPTVAVVGGQSSGKSSVLESIVGRDFLPRGSGIVTRRPLVLQLHKTDDGTEEYAEFLHLPKKQFTDFALVRREIQDETDRITGKNKQISPVPIHLSIYSPNVVNLTLIDLPGLTKVAVEGQPETIAEDIESMVRTYVDKPNCIILAISPANQDIATSDAIKLAKDVDPTGERTFGVLTKLDLMDKGTNALEVLEGRSYRLQHPWVGIVNRSQADINKNVDMMLARRKEREYFDTSPDYGHLASKMGSEYLAKLLSKHLESVIRTRIPSILSLINKSIEELERELDRMGRPVAVDAGAQLYTILEMCRAFDKIFKEHLDGGRPGGDRIYGVFDNQLPAALKKLPFDRHLSLQSVKKIVSEADGYQPHLIAPEQGYRRLIEGALGYFRGPAEASVDAVHYVLKELVRKSISETEELKRFPSLQVELAAAANSSLEKFREESKKSVIRLVDMESAYLTAEFFRKLPQEIERPVTNSKNQTASPSSATLDQYGDGHFRRIASNVSAYVNMVSDTLRNTIPKACVYCQVRQAKLALLNYFYSQISKREGKQLGQLLDEDPALMDRRLECAKRLELYKKARDEIDAVAWVR”, the “soluble on expression in E. coli” value is given as “not soluble”.
In the case of “MESLTLQPIARVDGAINLPGSKSVSNRALLLAALACGKTALTNLLDSDDVRHMLNALSALGINYTLSADRTRCDITGNGGALRAPGALELFLGNAGTAMRPLAAALCLGQNEIVLTGEPRMKERPIGHLVDSLRQGGANIDYLEQENYPPLRLRGGFTGGDIEVDGSVSSQFLTALLMTAPLAPKDTIIRVKGELVSKPYIDITLNLMKTFGVEIANHHYQQFVVKGGQQYHSPGRYLVEGDASSASYFLAAGAIKGGTVKVTGIGRKSMQGDIRFADVLEKMGATITWGDDFIACTRGELHAIDMDMNHIPDAAMTIATTALFAKGTTTLRNIYNWRVKETDRLFAMATELRKVGAEVEEGHDYIRITPPAKLQHADIGTYNDHRMAMCFSLVALSDTPVTILDPKCTAKTFPDYFEQLARMSTPA” it was “not soluble”; in that of “MESSKKTSRSRSTTQEAVRDIKKYIRDNRLRTGDLLPSEAFLCEELGCSRSAIREAIRALVTLDIVEVRHGYGTFVSRMSLEPLINGMVFRTVLDNDTSVENLFYVVDTREILDLSLGEELIEVFTDDDRELLLDLVDKMREHNDQGESFVVEDQKFHRALLARTKNPLIRELNDAFWQIQTEAQPMLNLAMPADIDETIKAHSDIVEALSSGNIDDYRSAVLAHYAPFRRMISNMLDAH”, “not soluble”; in that of “METFYRTHSYLVEHTNAPVRRDLMDEIDWNDRLIGIKGTRGVGKTTFLLQYAKEKFGTDHSCLFINMNNFYFSKYTLVEFAAEFVKRGGKVLLIDQVFKYPEWSHDLRACYEMFPTLKIIFTGSSVMRLKEENPELSGIAKVYYLRGFSFREYLNLQSGNCFRAYTLQEILENHEQIAKTILRNVKPLDYFQDYLHHGFYPFFLEKRNFSENLLKTMNMMIEVDILLIKQIELKYLSKIKKLLYLLAVDGPVAPNVSQLATEIQTSRATVMNYIKYLADARLINMVYPKGEEFPKKPSKLMMHNTNLMYSIYPVKVEEQDVLDTFFMNTLYKDHKLYKGDKGTSFMVDNGLHFRICAEGCKFKNNPNVYYALHKLELGHGNMIPLWLFGFLY”, “not soluble”.
For “METIKALEKFMEFDRLQKDCSDKLDRERERRMKAEREIARKNCGGNPCERELKSERSNVKRLEYQLDAEKEKVKFYKRELERDRYLSSRYLTSSSDPHEKPLPNYTFPRIKNVSPLTTEATGSVEVAPPSTDVTEPISDVTPSVDVEPEHPPAF”, the “soluble on expression in E. coli” value is “not soluble”.
Then “METKPSQGLYPLHRCKTIHLVRHAQGIHNVEGEKNHKAYLSEDLFDAHLTPLGWQQVDNLHKHVNASGISNRIELVVVSPLLRTLQTAVGTFGGEGYKDGVNTPLLMTAGAGNSDRPAISRLNRPPFIAVESCREHLGVHPCDRRSNITKYRELFPAIDFSLIETDEDVLWKPDIREEDKDIATRGVKFFNWLSTRKEKEIAVVTHSGFLYQTLNSFGNDCDPSVKNEISKKFVNCELRSFVLVDKCMSSSDPPMTNYPGTILTGEDASSDIADQK”, with “soluble”; and “METKYLRINPADNVAVAIVNLPAGEHLSVDGIEITLNEDIPAGHKFALKDFAEGENVIKYGYPIGHARMAKKQGDWMNETNIKTNLAGLLEYTYHPTQVTLDIPHKNLTFKGYRRKNGDVGVRNEIWIIPTVGCVNGIIGQLAEGLRRETEGKGVDAIVAFPHNYGCSQLGDDHENTKKILRDMVLHPNAGAVLIVGLGCENNQPDVFREFLGDYDQDRVKFMVTQKVGDEYEEGMDILRDLYAKASKDERTEVPLSELRVGLKCGGSDGFSGITANPLLGMFSDFLIAQGGTSVLTEVPEMFGAETILMNRCENKDLFEQTVHLINDFKEYFLSHGEPVGENPSPGNKAGGISTLEEKALGCTQKCGKSYVSGVMPYGERLQKKGLNLLSAPGNDLVAATTLAASGCHMVLFTTGRGTPFGTFVPTMKISTNSTLAKNKPGWIDFNAGVIVENEPMEKTCERFIEYVIKVASGEFVNNEKKGYREIAIFKTGVTL”, with “not soluble”.
In the case of “METLSNIQCFVRSAEAGSFAEAARRLGLTPAGVGKNVARLESNLGVRLFQRSTRRLTLTEAGERFLQEVGGSLEGIQTALANVSSVGNQPSGTLKVSMGLAFGRDYILPLLGEFLERYPDIVPDWHFDNRQVDLIGEGFDAAIGGGFELPPGVVARNLTPGHLILLASPTYLRDKPPIRHPGDLGGFDGIRIRSPQTGRVRSWPLRRRNGEEAPIELRERMTMSDPEATCEVAAMGLGITLVCMQHAYAYLESGALVRVLPDWYVDAGNTSLYYAANKLLPAKTRVFVDFVVDYFRRQDLARRFSAFPTG” it was “not soluble”.
Consider “METQKQTRRRGEKLENTILTAAWDQLNKVGYKDLTITEIASLAGTNKTTIYRRWPNKSLLVVSAFSKFVPRPKMHIPNSGNLRDDLVKLFEQLVNQLEFLTSGKFEGLLLDRLRDTSIDKVFGRVDENNALQKFIVIILQRAEKRGELKINQLSQRVLELPFLLLLNEVISTRGIVPKESLTEIVDKILLPVFLRSN”, for which the “soluble on expression in E. coli” value is “not soluble”.
Then “METRRAERINKLIQALKRSDKIHLKDAANLLRVSEMTIRRDLSAEPTSVILLGGYVVMDPKSNNANNYFVSDQQAKQVEEKRRIGQLAAQLIIENDTVFFDCGTTIPWIIDEIDEELAFTAICYSLNTFLALQDKPNCKVILCGGEFKPNNCIFTPLSQQSELDNICPNKAFISAAGVSIEYGATCFNFDEILLKHRAMAKSQYKILVADHSKFGKIKPASIGTLAQFDALVTDRPPVAEFYLFFSQHSVKIYC”, with “not soluble”.
Then “MEVIKITPRGYCYGVVDAMVIARNAALDPSLPRPIYILGMIVHNKHVTDAFAEEGIITLDGENRLEILEKIDHGTVIFTAHGVSPEVKKRALEKGLVTIDATCPDVTKTHRLIEQKLADGYDIIYIGKKGHPEPEGAVGINPERIHLVETIDDVERLSIHNERIMVTNQTTMSQWDVADIMAKVKEKYPHVEMHKEICLATQLRQEAVAEQAKEADVTIVVGDPRSNNSNRLAQVSEEIAGTKAYRVADVTEIDINWIKDAKKVAVTAGASTPTPITKEVIDFLEQFDPNDPSTWKRERKVPLQKILPKVKTKKEE”, with “not soluble”.
Then “MEVKIEETDWDEGVPGISFLKDAFSREEISPPKDDKNRKKEEVRMKLESGEYSVVYRCPTFDEILNENGQKIDLVQCKNCFGFLSARTGGHMKNHKNQRCKPLNGPPEKKPKLDPQVVGNLQNHILDFVTESGVSLNIAESEKFRIFIISMIITGNPNVNVDEHQFLSGEWIRKTMKEKSCQYLDNIGAELKDPVSKGDACLILDYGRQLDDTFSIFVSYTNRSSGYFSLRVIPLAFTPLFEKKITEKTLDYILHATDRVGLPKEHVLKLKVVAEGATNMLKLGEYFDNCNLFTVCLSFSSKMCRKSFRSTETVEKFDNFIRKITCESDRKRNRNLWNDFLQTPALQSLINIYVLSLILLCFQLTEQLSRTPAQSRANEWLASYHCARDILHVFPQIADLKDDRIEPLVDELRQCKGVLEDCFEIFSLFENPLKLLEQPEQQIQNVAGCLAAVAKMAKLSIAHYTKITVTDVHLICAFLSPDSKNLKNFPAPKKNKAYRIVNTLMKDVVVPPPSLSQPILSPLLMAIKNDPSPIPTVSQEFNDYVQLVVSSKDATLAPLEFWAKYQERFPRMSEIAAKNFCVMSSPGVCGPSFIVLRSLFRVDRHSKFPDTTELMMISYLMANELK”, with “not soluble”.

Source of the values: the DeepSol protein solubility set.
